# Experimental data taken from patent publication EP1086377B1, “A METHOD OF IDENTIFYING LIGANDS TO RNA […] 70 SUBUNIT” (AstraZeneca AB, priority 1998, dated 1999).
# What was measured:
# [1] = target: T1, Truncated sigma^70 (C-terminal 99 amino acids) (Escherichia coli, UniProt P00579); assay: Competitive ELISA for quantification of AsiA-sigma^70 interaction (GST-AsiA binding to immobilised truncated sigma^70); design: species or system E. coli
# T1 construct: made in house; GST-AsiA from E. coli DH5alpha / pARC 8105
# Description: A solution of the protein product (200 pmoles/ml) in a pH 7.5 buffer comprising Tris HCl (10 mM) and sodium chloride (50 mM) was prepared and 200 µl of solution were added per well of a nickel-coated microtitre plate, followed by incubation at room temperature for a period of two hours. The microtitre plate was then washed 5 times with the buffer solution and then incubated at 37°C for one hour with a solution of bovine serum albumin (3% w/v) in the above buffer. After washing 5 times with phosphate buffered saline (PBS) with "Tween" 20 (polyoxyethylene (20) sorbitan monolaurate, 0.5% v/v), the GST-AsiA fusion protein prepared as described in Example 4.1. above (100 ng) was added together with a defined amount of a putative inhibitor of truncated sigma^70 protein (corallopyronin, myxopyronin or ripostatin) and incubated at 37°C for one hour. Further washing (5 times) with PBS-"Tween" 20 was carried out and then anti-GST antibodies (1:2000) raised in rabbits were added to the wells, with incubation at 37°C for one hour. The previous washing step was repeated and thereafter anti-rabbit IgG-horse radish peroxidase (HRP) conjugate (1:2000) was added and incubated at 37°C for one hour. A final wash with PBS-"Tween" 20 was carried out, before adding the HRP enzyme substrate, tetramethyl benzidene/ H2O2. The enzymic reaction (resulting in the development of colour) was stopped after a suitable period of time by the addition of 6N H2SO4 and the microtitre plate was "read" in a spectrophotometer using light of wavelength (λ) 450 nm.
# [2] = target: Truncated sigma^70 (C-terminal 99 amino acids of E. coli sigma^70), (His)5-tagged (Escherichia coli) (UniProt P00579); assay: competitive ELISA; His-tagged truncated sigma^70 on nickel plate, free AsiA 7 µg/ml competing with GST-AsiA 500 ng/ml; the value is the GST-AsiA binding that remains
# [3] = target: E. coli RNA polymerase sigma^70 subunit (Escherichia coli) (UniProt P00579); assay: cell-based or functional assay
# [4] = target: Salmonella typhimurium RNA polymerase sigma^70 subunit (Salmonella typhimurium) (UniProt P0A2E3); assay: cell-based or functional assay
# [5] = target: Truncated sigma^70 (C-terminal 99 amino acids of E. coli sigma^70), (His)5-tagged (Escherichia coli) (UniProt P00579); assay: ELISA; His-tagged truncated sigma^70 on nickel plate, GST-AsiA detected with rabbit anti-GST and anti-rabbit IgG-HRP, OD 450 nm; reference without competitor
# [6] = GST-AsiA 500 ng/ml + competitor at 30 µg/ml
# E. coli RNA polymerase sigma^70 subunit (Escherichia coli), sequence (P00579 whole entry): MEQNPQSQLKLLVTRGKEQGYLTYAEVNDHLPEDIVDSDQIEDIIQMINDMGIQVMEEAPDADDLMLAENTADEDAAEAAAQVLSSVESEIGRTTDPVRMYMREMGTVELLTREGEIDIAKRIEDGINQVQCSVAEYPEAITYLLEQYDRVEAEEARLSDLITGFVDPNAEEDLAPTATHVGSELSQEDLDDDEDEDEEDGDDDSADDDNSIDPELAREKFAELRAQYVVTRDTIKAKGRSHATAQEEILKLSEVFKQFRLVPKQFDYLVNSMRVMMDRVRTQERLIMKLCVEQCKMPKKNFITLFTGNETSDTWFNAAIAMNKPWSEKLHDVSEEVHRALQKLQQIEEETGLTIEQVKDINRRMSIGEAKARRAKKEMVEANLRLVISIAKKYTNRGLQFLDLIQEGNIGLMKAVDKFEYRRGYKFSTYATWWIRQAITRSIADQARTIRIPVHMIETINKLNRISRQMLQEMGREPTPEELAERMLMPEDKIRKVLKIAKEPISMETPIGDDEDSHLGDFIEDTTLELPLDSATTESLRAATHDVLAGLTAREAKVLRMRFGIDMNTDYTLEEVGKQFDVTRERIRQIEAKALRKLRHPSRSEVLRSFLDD
# T1 sequence (P00579 515-613): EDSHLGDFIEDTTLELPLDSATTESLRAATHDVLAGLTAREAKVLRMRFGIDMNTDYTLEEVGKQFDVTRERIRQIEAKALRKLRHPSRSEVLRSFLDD
# Salmonella typhimurium RNA polymerase sigma^70 subunit (Salmonella typhimurium), sequence (P0A2E3 whole entry, the tested form may be a part): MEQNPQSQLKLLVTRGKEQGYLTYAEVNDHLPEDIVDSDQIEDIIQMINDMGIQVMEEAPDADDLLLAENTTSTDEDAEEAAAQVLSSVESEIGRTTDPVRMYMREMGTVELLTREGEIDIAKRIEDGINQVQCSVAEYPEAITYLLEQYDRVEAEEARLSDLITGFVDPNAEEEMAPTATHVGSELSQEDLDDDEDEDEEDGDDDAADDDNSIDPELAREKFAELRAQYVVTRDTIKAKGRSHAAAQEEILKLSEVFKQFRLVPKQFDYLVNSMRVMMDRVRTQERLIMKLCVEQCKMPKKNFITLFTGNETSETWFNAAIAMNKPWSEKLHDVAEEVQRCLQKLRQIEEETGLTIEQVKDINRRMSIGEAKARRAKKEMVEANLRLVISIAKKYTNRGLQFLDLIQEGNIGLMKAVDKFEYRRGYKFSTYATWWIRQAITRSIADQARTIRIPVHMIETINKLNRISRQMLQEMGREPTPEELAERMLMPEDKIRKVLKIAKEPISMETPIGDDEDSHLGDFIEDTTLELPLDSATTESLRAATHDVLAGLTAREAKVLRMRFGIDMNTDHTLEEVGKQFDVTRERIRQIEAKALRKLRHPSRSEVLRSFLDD
# Truncated sigma^70 (C-terminal 99 amino acids of E. coli sigma^70), (His)5-tagged (Escherichia coli), sequence (P00579 515-613): as the sequence (P00579 515-613) above
# GST-AsiA fusion protein (glutathione-S-transferase fused to the N-terminus of the bacteriophage T4 a, sequence (P08515 whole entry, the tested form may be a part): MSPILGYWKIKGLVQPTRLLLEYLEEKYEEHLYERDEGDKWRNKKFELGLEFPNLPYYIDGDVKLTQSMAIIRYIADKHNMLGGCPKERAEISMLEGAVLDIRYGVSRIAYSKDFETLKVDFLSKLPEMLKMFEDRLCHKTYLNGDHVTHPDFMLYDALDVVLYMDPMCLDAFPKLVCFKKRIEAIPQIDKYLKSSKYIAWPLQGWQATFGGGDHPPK
molecule,measurement,setting,value
C/C=C/C/C=C(\C)C(O)CC/C(C)=C/C=C(\C)C(=O)c1c(O)cc([C@H](C)CC/C=C/NC(=O)OC)oc1=O (some centres unmarked) [corallopyronin],% Binding to truncated sigma^70,[1]; [6],69%
C/C(=C\Cc1ccccc1)CCC(=O)C[C@H]1C[C@H](O)C/C(C)=C/C/C=C/C/C(CC(=O)O)=C\C(=O)O1 [ripostatin],% Binding to truncated sigma^70,[1]; GST-AsiA 500 ng/ml + competitor at 1 µg/ml,100%
same,% Binding to truncated sigma^70,[1]; GST-AsiA 500 ng/ml + competitor at 10 µg/ml,55%
same,% Binding to truncated sigma^70,[1]; GST-AsiA 500 ng/ml + competitor at 100 µg/ml,1.5%
"AsiA protein (anti-sigma^70 factor of bacteriophage T4, asiA gene product), released from GST-AsiA by Factor Xa",% Binding to truncated sigma^70,[2],12%
same,"[^3H]UTP (nmol) incorporated: E. coli RNA polymerase + 0.1 µg AsiA (control without AsiA 2.1), E. coli sigma^70 series",[3],0.57 nmol
same,"[^3H]UTP (nmol) incorporated: E. coli RNA polymerase + 0.1 µg AsiA (control without AsiA 2.3), S. typhimurium sigma^70 series before sigma^70 is added",[3],0.34 nmol
same,[^3H]UTP (nmol) incorporated: E. coli RNA polymerase + 0.1 µg AsiA + 4 µg E. coli sigma^70 (reactivation),[3],2.3 nmol
same,[^3H]UTP (nmol) incorporated: E. coli RNA polymerase + 0.1 µg AsiA + 4 µg E. coli sigma^70 preincubated with 0.1 µg AsiA,[3],0.68 nmol
same,"inhibition of E. coli RNA polymerase activity by 0.07 µg AsiA, T4 DNA template",[3],> 80%
same,[^3H]UTP (nmol) incorporated: E. coli RNA polymerase + 0.1 µg AsiA + 4 µg S. typhimurium sigma^70 (reactivation),[4],3 nmol
same,[^3H]UTP (nmol) incorporated: E. coli RNA polymerase + 0.1 µg AsiA + 4 µg S. typhimurium sigma^70 preincubated with 0.1 µg AsiA,[4],0.98 nmol
GST-AsiA fusion protein (glutathione-S-transferase fused to the N-terminus of the bacteriophage T4 a (from UniProt P08515 1-218),% Binding to truncated sigma^70,[5],100%
myxopyronin,% Binding to truncated sigma^70,[1]; [6],56%
